Data reported in the DeepSol protein solubility set.

assay: soluble on expression in E. coli; label from the status in PepcDB or PDB records

Sequence	soluble on expression in E. coli
MSLQAAGNAPAKISMLLTDGAIGQITKPFPEGGPSAKEVWERETGIEIDIVGAPAEDIFKKVMQDVTTGGGTFDIYTGPWNSTGDLVSSGGAVNCSDFVAKYQPDWADPERGTPTPEMEKLLYTYAGDYYSFSLDGDFQTWFYLKGLYEDPRVQDAFLSETGVALKTPDTWEEVDRISKFFTGKDFGNGPMYGNGNLMSPFWGLATFYARFASMDFPNYHFFDEDGNPNLNSDLGIQCAEEHVRSFEWCPPDALTFTWAEAYATMWNLQIPHTAIYTNLVKFGDGYNADGTPKSKATGMIGSHLPVGRRFGDQLNRRSVLYYHITAWISSQSQHPEAVYLFLQWLSSTRTYTWMAGNPGGYFDPMQQANFKEPLVASTYHPYAMETIPQTIARSVPSINFAGQTALDNALDEEIQAAITGQKSAREAMDAAQSKWERIIKRQEGHHHHHH	not soluble
MQTKLSTWTPLNHQLSNAHVFEERRNLLGKWFEKWTDSQRKQVLQDFFSRCSAGQLKHLRQTLSSWVPEETLDFTTVLPRVISLYIFSYLDPRSLCRCAQVSWHWKNLAELDQLWMPKCLKLGWCITFTPTPFEQGVWKRQYIETVQELHISRPKVPVKEEFIVPDVKVIGSETEGSLPLTGHRDLLGLQGRSKNGNDLGKSAKGLPPWRDSDRHPTDTIRFNYLDNLHPGEHARKALLKTRQEDTIKAPSHSTYKLRKAKSLMFLSLDLSTAGKPSHNRPKWAARNLEALPADKDSIKRISQTSQWNAGIRPGPVRPPVPRLSKEGFRASQRSHRSPPTVTLFEGQP	soluble
MGSDKIHHHHHHMKLSVKIAGVLTVAAAAMTAKMYATAKGNHLKTHTFPLSKMKGKPPLTIFFISDIHKRLIDQDLLEKARSHAPHLVIIGGDLAEGGVPSARIEENIKRLVHFGVPIVFVWGNNDYEVRQHKLYSIFKAHGVITLRNESVPFSYNGHTIAIAGVDDIRMEMDHYEEAIKELDESQLNILVCHNPEIHEQINEDDGIDVILSGHTHGGQIRFGKFGPYELGKTGIVKNAAYLISNGYGTTKVPLRLGAEPETHIVTLCGPE	not soluble
MGSDKIHHHHHHMSTNTTSHSTTHSTISSQAVVIKQADFIESIADSLQYISYYHPKDFVDAMTKAYEREESAAAKDAIAQILINSRMSAEGKRPLCQDTGIVTTFVKIGMSVQWDKTDMTVQEMVDEGVRRAYTNPDNPLRASIVSDPAGARKNTKDNTPSVVHIDMVAGNQIEVMIAAKGGGSENKSKMAMLNPSDDIAAWVEKTLPTMGAGWCPPGMLGIGIGGTAEKAAVLAKESLMDPVDIHELMARGAETTEEKLRLDIFERANNLGIGAQGLGGLTTVLDVKIKSVPTHAASKPVVMIPNCAATRHVHFHLDGTGPVDLVPPSLSDWPEITREAGENTHRVNLDTVTQAEIETWKSGDTLLLNGKMLTGRDAAHKRIQMLLESGEGLPAGVDFTGKFIYYVGPVDPVGDEVVGPAGPTTATRMDKFTDMMLDQTGLMGMIGKSERGPETVASIKKHKAVYLMAVGGAAYLVSKAIKKSRVVAFEDLGMEAIYEFDVQDMPVTVAVDTNGVNAHETGPAIWKINIANSKANK	not soluble
MLAKQRFVLDTTAFTDNQLRELLGDGDLNLSVDRMLDLIARSRIKLNISCHMPPITYKEFTDYMTRYDCPEETLIKAETWIVKKTPNRYDTQIPSQIFYEYVHDIRERMNKGLRISETLLWEAGIQSIIMASRDVKKTEIESEVLGKAIKDLRKKYRSALRKGTLDSAPDLDVLLLAKELGAGVVAADDGIRVWAERLGLRFLNATSFPKMLKEYLKYYE	not soluble
FYGEKATLNDGKLTSAELSQMTISGEKHVTEEEFGYCTEYVLKLGMSVSQEVEKQKFNQKKFESKVSKIATSVVVASDKDNGFVKVHAHTEKPNLLLELGLNYGEFELVKIENMNLQVAKQKPAPVKRNIKPAIVVTVPTEAFADRIREDYDIQAILCTDDTGAPSVFSLLEAVKLTHSSNIIFLLHDKNYFLSANEALKQLKHQKISADCVMTTNPIESLAALTVFNSDLNIHTNVKTMRRFVKGFASATITQASKKYKENRIEVNKGDFIAVANNSICVSEKELVQCVFNTIDHLLKKVKKPEFLLAYYGKDITAEEAEAMKEKIEKKYKLFCEFSPGEQKVFSYILGIQ	soluble
MGSDKIHHHHHHMTIRGKAYIAGIYEHPTRHAPDKSIAQLHAEVAKGALDDAGLTKADIDGYFCAGDAPGGVMAMVDYLGLKVRHFDSTDTGGCSYLVHLGHAAEAIAAGRCSVALITLAGKPRTGALPPRPVGAEGDFELAYGATTHNVYAMCAARHMHQYGTTSEQLAWIKVAASHHAQYNEHAMLRDVVTVEDVLNSPLIADPLHRMDCCVVTDGGGALIVTTEEIARSLKKPLVRMIGAGEAIKGPRGGHNLDLTYSAGVWSAPPAFEMAGVTPKDIKYASIYDSFTITVLMQLEDLGFCEKGQGGKFVADGNLISGVGKLPFNTDGGGLCSNHPVNRGGMTKLLEAVRQLRGEAHPKVQVPNCDLAIAHGTGGMLGIRHAASTCILERV	not soluble
KYRSVFDIIGPVMIGPSSSHTAGAARIGRVARSLFGREPERIIVSFYGSFAETYKGHGTDVAIIGGLLDFDTFDERIKTAIQIAEAKGIDIEFRVEDAVPVHPNTAKITISDEKGELELTGISIGGGKIEITELNGFELRLSGNHPAILVVHNDKFGTIAGVANVLAKFSINVGHMEVARKDIGQLALMTIEVDQNIDDHILDELSKLPN	not soluble
MHESARHIVDLYQRHARAWDQRRRANPEAFEGEQAWLERFRRVMGQGGQVLDLGCGGGEPIARNLIEHQCAVTGVDSSATLLDHCRQRFAGQQWIHADMRSLALDQDFAGILAWNSLFHLSPDDQRAMFTVFERHAGPGCALMFTSGPEAGEAIGEFEGEALYHASLSPGEYCTLLDTHGFEVVQHISEDPDCCGFTVWLARAIDWGLEHHHHHH	not soluble
MSLKNFINFHILISHSPSCLNRDDMNMQKSAVFGGERRVRVSSQSLKRAIRKSDYYRQHLGEASVRTKKLDELIAIINDRLAGRYDTDLLKKTVGLLAGKELSVEVATEGDAVAPWAIEEVAWFCEQVKRMVAQGQDEKALGKLLKNETAAMRQALASGVDIALSGRMATSGLMSELGKVDGALAVAHVLTTHSVDADIDWFTAVDDLQELGSGHLDTQEFSSGVFYRYASLNVKQLQENLGNAPREKALEIGAHLLHMLATIVPSAKQQSFAAHNLADLALVSFSDIPVSLANAFEKPVRSVNGSGFKEPSIAELHNYWQQIHTGYGLSERCGEFILGQSSVPEGITRKSTIEELKTWVMNNGEGEGHHHHHH	soluble
MSLKNSMTILDAIRALDDPTRLRIMRLLASMELAVGEVAQVLGQSQPRVSRHIKILCDSGLAERRKEGAWVFLRSSIGEGAESPLASALARLLAVAEHEDTAFGRRCSEDRQHLDAIRSSRESHALEWFARHADEWDELRSLHIADGPVEAALTEMLLALSGDGSLGRLLDVGTGTGRIAELFAPNAAHVVAFDKSPDMLRIARARLQHLPADAVELVQGDFAQLPFAARSFDTVLFHQVLHYAQAPEAVLAGAARVTAPGGRVAIVDFAAHEREDLRQTHAHARLGFSDAQIETMLLDAGFIPHETRALAGHELVVKLWTAVRREDSVTQLEPRQKSSSGKTEGHHHHHH	soluble
MHHHHHHSSGVDLGTENLYFQSMRLLRASGRTPEAVQKLLEQGLRHSQDLAFLSMLNDIAAVPATAMPFRGYAVLGGERGGPEVQQVPAGERPLWFICSGMGTQWRGMGLSLMRLDRFRDSILRSDEAVKPFGLKVSQLLLSTDESTFDDIVHSFVSLTAIQIGLIDLLSCMGLRPDGIVGHSLGEVACGYADGCLSQEEAVLAAYWRGQCIKEAHLPPGAMAAVGLSWEECKQRCPPGVVPACHNSKDTVTISGPQAPVFEFVEQLRKEGVFAKEVRTGGMAFHSYFMEAIAPPLLQELKKVIREPKPRSARWLSTSIPEAQWHSSLARTSSAEYNVNNLVSPVLFQEALWHVPEHAVVLEIAPHALLQAVLKRGLKPSCTIIPLMKKDHRDNLEFFLAGIGRLHLSGIDANPNALFPPVEFPAPRGTPLIS	soluble
VNAYDVLKRHHTVLKGLGRKVGEAPVNSEERHVLFDEMLIELDIHFRIEDDLYYPALSAAGKPITGTHAEHRQVVDQLATLLRTPQRAPGYEEEWNVFRTVLEAHADVEERDMIPAPTPVHITDAELEELGDKMAARIEQLRGSPLYTLRTKGKADLLKAI	not soluble
